Test results taken from patent publication US10501734B2, “Compositions and methods of use thereof for making polypeptides with many instances of nonstandard amino acids” (Yale University, priority 2014, dated 2019).
Numbering of substitutions follows the chain as printed. In names and notes the source's numbering stands. Like-named read-outs stand apart in the source and are kept apart here.

Tests used:
GFP(3TAG) [1] = assay: nsAA library screening, GFP(3TAG) fluorescence in 384 well plates; assay type: cell-based, E. coli; conditions: GFP(3TAG) production in the presence of pAcF, pAzF and 236 other nsAAs
Description: (§1) Liquid cell cultures of strains harboring chromosomally integrated OTSs and GFP reporter plasmids were inoculated from frozen stocks and grown to confluence overnight. Cultures were then inoculated at 1:20 dilution in LBmin media supplemented with 30 μg/ml kanamycin. Strains were inoculated by addition of 1:20 confluent cell culture (grown overnight) and allowed to grow at 34° C. to an OD600 of 0.5-0.8 in a shaking plate incubator at 650 r.p.m (˜3 h). AARS expression was then induced by the addition of 0.2% arabinose, GFP expression was induced by the addition of 60 ng/ul anhydrotetracycline, and the appropriate nsAA was added to a concentration of 1 mM. Cells were incubated at 34° C. for an additional 16 h. Liquid cell cultures of strains harboring plasmid-based OTSs and GFP or ELP-GFP reporter plasmids were inoculated from frozen stocks and grown to confluence overnight. Cultures were then inoculated at 1:20 dilution in 2×YT media supplemented with 30 μg/ml kanamycin and 20 μg/ml chloramphenicol. […] Cells were allowed to grow at 34° C. to an OD600 of 0.5-0.8 in a shaking plate incubator at 650 r.p.m (˜3 h), reporter protein expression was then induced by the addition of 60 ng/ul anhydrotetracycline, and cells were incubated at 34° C. for an additional 16 h.
For 384 well plate-based assays, fluorescence and OD600 were directly measured following expression. For 96 well plate-based assays, cells were centrifuged at 4,000 g for 4 min. Supernatant medium was removed and cells were resuspended in PBS. This process was repeated twice with PBS. GFP fluorescence was measured on a Biotek spectrophotometric plate reader using excitation and emission wavelengths of 395 and 509 nm, respectively). Fluorescence signals were normalized by dividing the fluorescence counts by the OD600 reading. The nsAAs used in this study were purchased from Sigma-Aldrich (St. Louis, Mo.), Chemlmpex (Wood Dale, Ill.), and Bachem (Torrance, Calif.). Solutions of nsAAs (50 mM) were made in water or 50 mM NaOH; these stock solutions were diluted 50- or 100-fold (to 1 mM final concentration) into medium used for bacterial growth. […]

[2] = ATP-PPi exchange assay (amino acid activation); assay type: biochemical
Description: A 25 μl ATP-PPi exchange reaction contained the following components: 100 mM HEPES-KOH (pH 7.5), 30 mM KCl, 10 mM MgCl2, 2 mM DTT, 2 mM KF, 2 mM NaPPi, 5 mM ATP, […], 2 μCi/μl of […] (PerkinElmer) and varied concentrations of amino acids (0.25, 0.5, 1.25, 2.5, 5, 10, and 20 mM, respectively). The reactions were incubated at 37° C. Time points were taken at 2 minutes, 5 minutes and 10 minutes by plotting 1 μl aliquots from the reaction immediately to the PEI-cellulose plates (Merck). For each reaction, 1 μl of blank reaction mixture containing no enzymes was set as background. The reaction mixtures were separated on the plates in 1 M urea and 1 M monopotassium phosphate. The plates were then scanned in a Molecular Dynamics Storm 860 phosphorimager (Amersham Biosciences). The ratio of ATP to PPi was determined to monitor reaction progress. The kinetic constants were derived from plotting initial velocity of a series of reactions that contained varied concentrations of amino acids. The data were analyzed by GraFit 5.0 (Erithacus Software).

tRNA = assay: Aminoacylation assay (tRNA charging); assay type: biochemical
Description: Template plasmid containing tRNA gene was purified with the plasmid maxi kit (Qiagen), and 100 μg of plasmid was digested with BstNI (New England Biolabs). The BstNI digested template DNA was purified by phenol chloroform extraction, followed by ethanol precipitation and resolved in double distilled water. A His-tagged T7 RNA polymerase was purified over column of Ni-NTA resin according to manufacturer's instructions (Qiagen). The transcription reaction [40 mM Tris (pH 8); 4 mM each of UTP, CTP, GTP, and ATP at pH 7.0; 22 mM MgCl2; 2 mM spermidine; 10 mM DTT; 6 μg pyrophosphatase (Roche Applied Science); 60 μg/mL BstNI digested DNA template, approximately 0.2 mg/ml T7 RNA polymerase] was performed in 10 ml reaction volumes for overnight at 37° C. The tRNA was purified on 12% denaturing polyacrylamide gel containing 8 M urea and TBE buffer (90 mM Tris, 90 mM boric acid, 2 mM EDTA). UV shadowing illuminates the pure tRNA band, which is excised and extracted three times with 1M sodium acetate pH 5.3 at 4° C. The tRNA extractions were then ethanol precipitated, dissolved in RNase-free distilled water, pooled, and finally desalted using a Biospin 30 column (BioRad). The ratio of aminoacylated tRNA to total tRNA was determined to monitor reaction progress.
The tRNA was refolded by heating to 100° C. for 5 min and slow cooling to room temperature. At 65° C., MgC12, was added to a final concentration of 10 mM to aid folding. A His-tagged CCA adding enzyme was purified over column of Ni-NTA resin according to manufacturer's instructions (Qiagen). 16 μM folded tRNA in 50 mM Tris (pH 8.0), 20 mM MgCl2, 5 mM DTT and 50 μM NaPPi was incubated at room temperature for 1 hour with approximately 0.2 mg/ml CCA-adding enzyme and 1.6 μCi/μl of [α-32P]-labeled ATP (PerkinElmer). The sample was phenol/chloroform extracted and then passed over a Bio-spin 30 column (Bio-Rad) to remove excess ATP.
A 20 μl aminoacylation reaction contained the following components: 50 mM HEPES-KOH (pH 7.2), 25 mM KCl, 10 mM MgCl2, 5 mM DTT, 10 mM ATP, 25 μg/ml pyrophosphatase (Roche Applied Science), 2 mM amino acids. All plateau tRNA aminoacylation levels were determined at 37° C. according to the reactions conditions described above with 500 nM enzyme, 5 μM unlabeled tRNA plus 100 nM 32P-labeled tRNA. Time points were taken at 5 minutes, 20 minutes and 60 minutes by removing 2 μl aliquots from the reaction and immediately quenching the reaction into an ice-cold 3 μl quench solution [0.66 μg/μl nuclease P1 (Sigma) in 100 mM sodium citrate (pH 5.0)]. For each reaction, 2 μl of blank reaction mixture containing no enzymes was added to the quench solution as the start time point. The nuclease P1 mixture was then incubated at room temperature for 30 min and 1 μl aliquots were spotted on PEI-cellulose plates (Merck) and developed in running buffer containing 5% acetic acid and 100 mM ammonium acetate. Radioactive spots for AMP and AA-AMP (representing free tRNA and aminoacyl-tRNA, respectively) were separated and then visualized and quantified by phosphor imaging by a Molecular Dynamics Storm 860 phosphorimager (Amersham Biosciences). The ratio of aminoacylated tRNA to total tRNA was determined to monitor reaction progress.

GFP(3TAG) [3] = assay type: cell-based, E. coli; conditions: chromosomally integrated AARS; for higher GFP(3TAG) production compared with the progenitor enzyme: pAcF
Description: as §1
For 384 well plate-based assays, fluorescence and OD600 were directly measured following expression. For 96 well plate-based assays, cells were centrifuged at 4,000 g for 4 min. Supernatant medium was removed and cells were resuspended in PBS. This process was repeated twice with PBS. GFP fluorescence was measured on a Biotek spectrophotometric plate reader using excitation and emission wavelengths of 395 and 509 nm, respectively). Fluorescence signals were normalized by dividing the fluorescence counts by the OD600 reading. The nsAAs used in this study were purchased from Sigma-Aldrich (St. Louis, Mo.), Chemlmpex (Wood Dale, Ill.), and Bachem (Torrance, Calif.). Solutions of nsAAs (50 mM) were made in water or 50 mM NaOH; these stock solutions were diluted 50- or 100-fold (to 1 mM final concentration) into medium used for bacterial growth.

[4] = nsAA pAcF, relative to progenitor pAcFRS
[5] = nsAA pAzF, relative to progenitor pAcFRS
[6] = amino acid Tyrosine, relative to pAcFRS

B1: pAcFRS.1: pAcFRS variant A167D, SEQ ID NO: 2 (protein)
chain: MDEFEMIKRNTSEIISEEELREVLKKDEKSALIGFEPSGKIHLGHYLQIKKMIDLQNAGFDIIILLADLHAYLNQKGELDEIRKIGDYNKKVFEAMGLKAKYVYGSEFQLDKDYTLNVYRLALKTTLKRARRSMELIAREDENPKVAEVIYPIMQVNGCHYRGVDVDVGGMEQRKIHMLARELLPKKVVCIHNPVLTGLDGEGKMSSSKGNFIAVDDSPEEIRAKIKKAYCPAGVVEGNPIMEIAKYFLEYPLTIKRPEKFGGDLTVNSYEELESLFKNKELHPMRLKNAVAEELIKILEPIRKRL
With B1 the “nsAA specificity (polyspecificity)” value (GFP(3TAG) [1]) was “polyspecifity for at least pAcF, pAzF, StyA, 4IF, 4BrF, 4ClF, 4MeF, 4Cf3F, MeY, 4NO2F, 4BuF, BuY, 2NaA, PheF”, the Km ([2]; nsAA pAcF) was 2160 ± 720 µM and the kcat ([2]; nsAA pAcF) was 6.84 ± 0.64 ×10^−2 s^−1. For the same molecule, the Fold change [2, 4] was 4.64, the Km ([2]; nsAA pAzF) was 1740 ± 390 µM and the kcat ([2]; nsAA pAzF) was 3.50 ± 0.20 ×10^−2 s^−1. For the same molecule, the Fold change [2, 5] was 1.37, the Km (tRNA; nsAA pAcF) was 36 ± 7 µM and the kcat (tRNA; nsAA pAcF) was 1.21 ± 0.24 ×10^−3 s^−1. The Fold change (tRNA; [4]) was 4.60, the Km (tRNA; nsAA pAzF) was 31 ± 9 µM and the kcat (tRNA; nsAA pAzF) was 0.65 ± 0.20 ×10^−3 s^−1. The Fold change (tRNA; [5]) was 3.38 and the “higher GFP(3TAG) production compared with the progenitor enzyme” value (GFP(3TAG) [3]) was about 8 fold.

B2: pAcFRS.t1: pAcFRS variant R257G, SEQ ID NO: 3 (protein)
chain: B1 chain with D167A, R257G
For B2, the “nsAA specificity (polyspecificity)” value (GFP(3TAG) [1]) was “polyspecifity for at least pAc.F, pAzF, StyA”, the Km ([2]; nsAA pAcF) was 9170 ± 3670 µM and the kcat ([2]; nsAA pAcF) was 6.92 ± 1.27 ×10^−2 s^−1. For the same molecule, the Fold change [2, 4] was 1.11, the Km (tRNA; nsAA pAcF) was 17 ± 3 µM and the kcat (tRNA; nsAA pAcF) was 0.22 ± 0.02 ×10^−3 s^−1. For the same molecule, the Fold change (tRNA; [4]) was 1.77 and the “higher GFP(3TAG) production compared with the progenitor enzyme” value (GFP(3TAG) [3]) was about 1.5 fold.

B3: pAcFRS.t2: pAcFRS variant R257C, F261E, SEQ ID NO: 4 (protein)
chain: B1 chain with D167A, R257C, F261E
In the case of B3, the “nsAA specificity (polyspecificity)” value (GFP(3TAG) [1]) is reported as “polyspecifity for at least pAcF, pAzF, StyA”, the Km ([2]; nsAA pAcF) is reported as 8590 ± 3230 µM and the kcat ([2]; nsAA pAcF) is reported as 6.67 ± 1.27 ×10^−2 s^−1. For the same molecule, the Fold change [2, 4] was 1.14, the Km (tRNA; nsAA pAcF) was 29 ± 3 µM and the kcat (tRNA; nsAA pAcF) was 0.27 ± 0.07 ×10^−3 s^−1. For the same molecule, the Fold change (tRNA; [4]) was 1.27 and the “higher GFP(3TAG) production compared with the progenitor enzyme” value (GFP(3TAG) [3]) was about 1.5 fold.

B4: pAcFRS.1.t2: pAcFRS variant A167D, R257C, F261E, SEQ ID NO: 6 (protein)
chain: B1 chain with R257C, F261E
For B4, the “nsAA specificity (polyspecificity)” value (GFP(3TAG) [1]) was “polyspecifity for at least pAcF, pAzF, StyA, 4IF, 4BrF, 4ClF, 4MeF, 4Cf3F, MeY, 4NO2F, 4BuF, BuY, 2NaA, PheF”, the Km ([2]; nsAA pAcF) was 1690 ± 440 µM and the kcat ([2]; nsAA pAcF) was 6.30 ± 0.46 ×10^−2 s^−1. For the same molecule, the Fold change [2, 4] was 5.47, the Km (tRNA; nsAA pAcF) was 27 ± 3 µM and the kcat (tRNA; nsAA pAcF) was 1.03 ± 0.06 ×10^−3 s^−1. The Fold change (tRNA; [4]) was 5.22 and the “higher GFP(3TAG) production compared with the progenitor enzyme” value (GFP(3TAG) [3]) was about 15 fold.

B5: pAcFRS.2: pAcFRS variant L65V, A167D, SEQ ID NO: 7 (protein)
chain: B1 chain with L65V
For B5, the “nsAA specificity (polyspecificity)” value (GFP(3TAG) [1]) was “polyspecifity for at least pAcF, pAzF, StyA, 4IF, 4BrF, 4ClF, 4MeF, 4Cf3F, MeY, 4NO2F, 4BuF, BuY, 2NaA, PheF”, the Km ([2]; nsAA pAcF) was 3130 ± 1730 µM and the kcat ([2]; nsAA pAcF) was 5.28 ± 0.79 ×10^−2 s^−1. The Fold change [2, 4] was 2.48, the Km ([2]; nsAA pAzF) was 6400 ± 780 µM and the kcat ([2]; nsAA pAzF) was 4.08 ± 0.20 ×10^−2 s^−1. For the same molecule, the Fold change [2, 5] was 0.44, the Km (tRNA; nsAA pAcF) was 31 ± 7 µM and the kcat (tRNA; nsAA pAcF) was 0.58 ± 0.09 ×10^−3 s^−1. For the same molecule, the Fold change (tRNA; [4]) was 2.56, the Km (tRNA; nsAA pAzF) was 33 ± 8 µM and the kcat (tRNA; nsAA pAzF) was 0.18 ± 0.02 ×10^−3 s^−1. For the same molecule, the Fold change (tRNA; [5]) was 0.88 and the “selectivity toward pAcF over pAzF” value (GFP(3TAG) [3]; GFP(3TAG) expression) was “increase in selectivity”.

B6: WTmjYRS: wild-type M. jannaschii TyrRS, the parent AARS of pAcFRS (protein, UniProt Q57834 1-306, looked up)
Tyrosine--tRNA ligase: B1 chain with L32Y, G158D, C159I, R162L, D167A, R286D
In the case of B6, the kcat ([2]; amino acid Tyrosine) is reported as 52.2 ± 4.1 ×10^−2 s^−1, the Km ([2]; amino acid Tyrosine, read-out: Km, nsAA) is reported as 76 ± 30 µM and the Fold change [2, 6] is reported as 1007. For the same molecule, the Km (tRNA; amino acid Tyrosine) was 23 ± 3 µM, the kcat (tRNA; amino acid Tyrosine) was 130 ± 22 ×10^−3 s^−1 and the Fold change (tRNA; [6]) was 774.
